Data from article PMC6637110.

Target: its substrates (DNA-bound substrates of p97 on plasmid isolated from extract with p97i)
Test: pull-down; dilution experiment: plasmid incubated 180 minutes in extract with CB-5083, isolated by plasmid pull-down, washed, resuspended in 100 volumes of ELB with or without 5 mM ATP, 21 °C; p97 retained on bead-bound DNA by Western blot over time

decrease of DNA-bound p97 within 180 minutes, with ATP: 90%
decrease of DNA-bound p97 within 180 minutes, without ATP: 70%
Substance: p97 (endogenous, Xenopus egg extract) (from UniProt P23787 1-805) (natural protein)
